Assay results from article PMC8205012, “Novel CD123 polyaptamer hydrogel edited by Cas9/sgRNA for AML-targeted therapy”.

Target: Cas9 (UniProt Q99ZW2 1-1368)
Experiment: flow cytometry, Cas9 beads; Cell binding: 1e5 cells, 50 nM (flow) or 5 uM (confocal) FAM-DNA, 37 C, 30 min, PBS wash; bead assays: beads washed in PBS, binding buffer and temperature not stated
Conditions: protein: commercial; label: FAM

Chain of Cas9 (Q99ZW2 whole entry): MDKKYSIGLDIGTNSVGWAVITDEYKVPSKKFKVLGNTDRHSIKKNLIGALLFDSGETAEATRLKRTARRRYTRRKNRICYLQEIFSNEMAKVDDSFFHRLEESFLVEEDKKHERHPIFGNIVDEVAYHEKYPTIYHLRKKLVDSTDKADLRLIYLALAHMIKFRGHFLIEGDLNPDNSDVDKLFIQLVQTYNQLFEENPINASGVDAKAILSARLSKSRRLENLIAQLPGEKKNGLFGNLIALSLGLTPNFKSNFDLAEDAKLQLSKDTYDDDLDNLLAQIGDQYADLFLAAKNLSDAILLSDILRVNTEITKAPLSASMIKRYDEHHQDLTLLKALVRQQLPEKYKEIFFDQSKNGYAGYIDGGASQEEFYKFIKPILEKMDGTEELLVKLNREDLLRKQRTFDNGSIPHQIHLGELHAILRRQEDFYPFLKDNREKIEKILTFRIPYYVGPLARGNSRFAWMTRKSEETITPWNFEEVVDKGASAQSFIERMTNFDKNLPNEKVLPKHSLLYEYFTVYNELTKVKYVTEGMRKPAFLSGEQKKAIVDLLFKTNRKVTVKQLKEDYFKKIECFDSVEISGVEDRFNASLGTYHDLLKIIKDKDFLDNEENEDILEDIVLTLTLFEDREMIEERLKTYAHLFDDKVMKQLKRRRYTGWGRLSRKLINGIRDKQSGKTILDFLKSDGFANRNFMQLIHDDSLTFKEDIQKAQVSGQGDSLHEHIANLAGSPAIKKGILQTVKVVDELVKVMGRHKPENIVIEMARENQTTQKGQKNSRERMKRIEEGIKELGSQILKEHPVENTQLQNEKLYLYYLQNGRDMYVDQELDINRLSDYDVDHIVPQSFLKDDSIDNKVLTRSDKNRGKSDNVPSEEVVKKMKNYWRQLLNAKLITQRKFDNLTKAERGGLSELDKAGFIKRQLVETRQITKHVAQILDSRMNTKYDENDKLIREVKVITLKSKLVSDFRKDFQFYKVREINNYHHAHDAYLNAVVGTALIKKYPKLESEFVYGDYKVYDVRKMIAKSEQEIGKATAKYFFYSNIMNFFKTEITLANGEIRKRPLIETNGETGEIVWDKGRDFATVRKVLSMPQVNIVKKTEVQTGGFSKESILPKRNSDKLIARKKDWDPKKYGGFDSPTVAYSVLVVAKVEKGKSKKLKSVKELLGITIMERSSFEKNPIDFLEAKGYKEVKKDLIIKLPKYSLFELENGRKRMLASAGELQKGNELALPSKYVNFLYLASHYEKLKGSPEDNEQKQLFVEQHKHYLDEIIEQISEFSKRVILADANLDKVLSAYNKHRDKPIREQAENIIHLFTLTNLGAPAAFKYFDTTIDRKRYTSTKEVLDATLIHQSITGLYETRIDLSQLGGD

B1: sgRNA (structured_RNA)
RNA: GGUGGUGCAGAUGAACUUCAGUUUUAGAGCUAGAAAUAGCAAGUUAAAAUAAGGCUAGUCCGUUAUCAACUUGAAAAAGUGGCACCGAGUCGGUGCUUUU
binding result: binds
